# B1: Complement factor H (Homo sapiens), P08603 (parent)
# chain: MRLLAKIICLMLWAICVAEDCNELPPRRNTEILTGSWSDQTYPEGTQAIYKCRPGYRSLGNVIMVCRKGEWVALNPLRKCQKRPCGHPGDTPFGTFTLTGGNVFEYGVKAVYTCNEGYQLLGEINYRECDTDGWTNDIPICEVVKCLPVTAPENGKIVSSAMEPDREYHFGQAVRFVCNSGYKIEGDEEMHCSDDGFWSKEKPKCVEISCKSPDVINGSPISQKIIYKENERFQYKCNMGYEYSERGDAVCTESGWRPLPSCEEKSCDNPYIPNGDYSPLRIKHRTGDEITYQCRNGFYPATRGNTAKCTSTGWIPAPRCTLKPCDYPDIKHGGLYHENMRRPYFPVAVGKYYSYYCDEHFETPSGSYWDHIHCTQDGWSPAVPCLRKCYFPYLENGYNQNYGRKFVQGKSIDVACHPGYALPKAQTTVTCMENGWSPTPRCIRVKTCSKSSIDIENGFISESQYTYALKEKAKYQCKLGYVTADGETSGSITCGKDGWSAQPTCIKSCDIPVFMNARTKNDFTWFKLNDTLDYECHDGYESNTGSTTGSIVCGYNGWSDLPICYERECELPKIDVHLVPDRKKDQYKVGEVLKFSCKPGFTIVGPNSVQCYHFGLSPDLPICKEQVQSCGPPPELLNGNVKEKTKEEYGHSEVVEYYCNPRFLMKGPNKIQCVDGEWTTLPVCIVEESTCGDIPELEHGWAQLSSPPYYYGDSVEFNCSESFTMIGHRSITCIHGVWTQLPQCVAIDKLKKCKSSNLIILEEHLKNKKEFDHNSNIRYRCRGKEGWIHTVCINGRWDPEVNCSMAQIQLCPPPPQIPNSHNMTTTLNYRDGEKVSVLCQENYLIQEGEEITCKDGRWQSIPLCVEKIPCSQPPQIEHGTINSSRSSQESYAHGTKLSYTCEGGFRISEENETTCYMGKWSSPPQCEGLPCKSPPEISHGVVAHMSDSYQYGEEVTYKCFEGFGIDGPAIAKCLGEKWSHPPSCIKTDCLSLPSFENAIPMGEKKDVYKAGEQVTYTCATYYKMDGASNVTCINSRWTGRPTCRDTSCVNPPTVQNAYIVSRQMSKYPSGERVRYQCRSPYEMFGDEEVMCLNGNWTEPPQCKDSTGKCGPPPPIDNGDITSFPLSVYAPASSVEYQCQNLYQLEGNKRITCRNGQWSEPPKCLHPCVISREIMENYNIALRWTAKQKLYSRTGESVEFVCKRGYRLSSRSHTLRTTCWDGKLEYPTCAKR
# Variants of: B1
# Conditions: with sdre_staam sdrE
row,Variant,effect of a mutation on the interaction
1,D1220A,with no effect
2,T1216A,increasing interaction
3,T1217A,with no effect
4,E1224A,increasing interaction
5,R1210A,increasing interaction
6,Y1225A,increasing interaction
7,T1213A,increasing interaction
8,C1218A,increasing interaction
9,H1212A,increasing interaction
10,L1207A,decreasing interaction
11,L1214A,increasing interaction
12,S1209A,decreasing interaction
13,R1206A,disrupting interaction
14,K1222A,with no effect
15,S1208A,disrupting interaction
16,S1211A,decreasing interaction
17,P1226A,decreasing interaction
18,W1219A,with no effect
19,R1215A,with no effect
20,L1223A,increasing interaction

# — IntAct's records for PubMed 28258151
